# Results: the domain aggregation screens of Martell et al. (2025)
# Experiment: soluble fraction after stress (log2 fold change); higher = more stays soluble; pooled small domains, quantitative proteomics
# Settings: stress: 50 degC
# Outline: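 Custom libraries of small protein domains were pooled and measured in a high-throughput format, with quantitative proteomics as the read-out. Each library was stressed at 50°C. The value is the log2 fold change in the amount of each protein that stays soluble after stress, used as a measure of aggregation propensity; higher values mean more of the protein stays soluble.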
row,Sequence,soluble fraction (log2)
1,HMRIDVWLAENGFAPSRQKAQDLIAAGRVFQTDPSGRRQKVSKASAAVDPALSPKIEVIPDPE,0.161
2,HMILESREKYLGEVLEVLVEEEKEGEYFGYSQNYLRVKFKLEEKNLINQLINIKIKSIEDDILIGEKEN,-1.46
3,HMGGLAHPASGEEMEHLFAHLEGELLKSGFLFPPDKAAGMMRNIRAMLTRADFTDQEVRTLRGMIVALSRG,-1.66
4,HMALPRYFFRTRENGAVLFKTPVNNHQNRLEMHQIAAINIRNETVKPLGDTVLTDEETELIADWMRERKTV,-0.72
5,HMNDGEIAAPVSGTLQSFKVEDGQTVSEGDLVAVMEAMKMETQILATKGGTIRLLVKEGDYLQAGHALMTI,-0.525
6,HMWPQIAGFADRFGLSDTERRIVTLMSHGRSRKIIASTLGYSQNTIRNYTRNIYAKAGVHSKQELLDLLDP,-2.13
7,HMKTEIKSPLPGIVLKIFVRTGEYVDKNQRLFSLEAMKMENEIKAERAGVIAGIRISEGQSVLQDEVIMEM,-0.297
8,HMFHDALVSFAERRVIFMKELVNRLNEARKAYYEGESIMSDKEYDNLYDKLVKMELTTGVVLPNSPTEEVG,-1.37
9,HMLRDTTLLHIDSIVRDGSTAMANITVRDEGTDLEFPLQLRMERGDMGWQVVRIVNYRAYLEAVQKA,-0.336
10,HMEILVSTRRHEIASLLSRKKRVSFFELFPEKTKEYVVATFLAILEMAKAREVNITQEDTFDEIIVEEA,-0.43
11,HMEKSLKELAQGVGQKVLTSGRPYHFDPMSAMERRVVHMTLMEMDGLRTESEGEGRFRHVVVFPA,-0.184
12,HMSRVHHGFNISIARNRKGLKQAALADMLGISQQRLSQLENQRVVKDEILEKVSEATGVSVEDLKTIE,-0.253
13,HMDEWFPVNDDYKFMVGDEVRTPDGLVKVVATHNDSATFYGKIITPIHDDVLKGETYEYRSYEAQVLA,-0.425
14,HMPSSQQVMRRLATVGPDKTLEELQRQHDAHLRKYGEFNDFRGERQQMRQEMERIKEAKQGTGPYAHLMG,0.0233
15,HMDLPATVPNLEGLTEVTARNKLTVAGLSLGEVKEVESDKEKGTVVGQSIAYGKRVTKGTKVDIEISSGK,0.0361
16,HMDGIIIPDVSGKSYAEAVATLNEKGFKVEKGEDAGSSLAKDLVSYTNPAAGNRAKSGATISVFVSTGANA,0.17
17,HMAVWRIKVNYIPGYGVNIWSSYKNGHFTGKRAMHGETYEVLETKKDQDGNTWYKLDDHQWIEGRYAINAK,-0.466
18,HMAKINFTSDAIDIGMVTRNDIEMLSFYQNVLGLTKDMEIPFPGLGVVNKLSFGSGFIKILVL,-0.0122
19,HMDTLKDFISGVSIVFENKYSVGDNVTIGDFRGDVIELGMKTTKIRAYTGEVLIIPNHLVEKVINH,-1.51
20,HMPEGTYLEKLAIENNNLQLIGLSREASQLVQLLQDAPQWRKVNLTGVLQADGAASGRDRFTMTAELQ,0.0683
21,HMSESAGKAFDLLFYLAKAGETVSLARLSRETGMNKATALRYLNVLESKGVVERSKLGWTLGLSLFELGSK,-2.05
22,HMAHSWEAIRVKLQQIIDEEDKTKPLNDDQIKEKLAEAGIPNLARRTVAKYRKLLNIPTARFRKR,-0.313
23,HMETDGGDLTPRERDVLSLIGRGLRNAEAASALGLSEHTIAGHIKSVYSKLGISTRAEAALLASRLGL,-0.0786
24,HMSDYKSYLQELVQTDKKSLSYNVVKETGPAHDKTFEVEVEVDGIIYAHGVGKSKKEAEQNAAKNAIMISA,0.149
25,HMKRTLLLEGRTIPYELTQKPVKNINIRVHADGSVRVSAGPWVSPEAVDAVLRQRSAFLLRALDQFAAQAP,-0.996
26,HMGDFVIVPDLIGKTIEEFDSELNELNLKYIISDSGNYNPDFKINSVLDQLPNANSKVKGGRKIYITLNAS,-1.37

row,Sequence,soluble fraction (log2)
1,HMLALVREQIERNVSNPTDEDIRKIRHDVMEVITRAGADAATVDIAIEIDSQKNILRAIATGATEL,-0.0114
2,HMSSLDTLTARETQILAEMAQGKNNAAIAAAVSVSERAVEKHTNSIFAKLGLSEEKDVNRRVMAVLLFLGR,-3.28
3,HMTSVPGTVVTNANLRGGPGTNYPIVGKAPAGTTVNVVESTADRTWYYLDTGSWIAAFLVKLS,0.152
4,HMQPIQPNQAKYLDGLSSKYKGKGNHSQAAQLTALRDALNAGDHAKAREIYDKLDYEPQAEAAH,0.351
5,HMTELNNTQRAAVLLLALDEDSAAEVFKHLSAREVQEVSQEMAKLGNISHDQMRQVLDDFYDESEQF,-0.0259
6,HMSTGYEMVREVANQGSFSKAANSLGVSGPAVSKQVKSLEERLGLVLFHRTTRAVSLTQAGRQLVDVLN,0.0396
7,HMYSFPHQLLKLRTEKQLSQAELATRLFVSRQAVSKWENGDAEPSIDKLILLAKVFNVSLDRLILGT,-1.43
8,HMNKRKQRINDLMDLIREQPALSIKNLAEMLNVSEMTIRRDMAYLKSNNLLNRAHGMNFLNS,0.0812
9,HMSNEVSYSDFVRSVESDEVNAVTLDGEQIRFVGNDGQTYSVIKPADAQITQLLIDNNVTVRAEQQ,0.0224
10,HMAGTDLSERESEIAMLLLKGYPYKLIASRLYISESTVKSHVQNIYGKLGIHSRTELIEQFSAS,-0.558
11,HMRDFTQPQTASIGPRMREALARGTMTVEELREQFRTQEFPHESVRTAFLEELERVAAELGLA,-0.0676
12,HMGQVSDETGLARVVDALLAAHPDEVAKYRAGKTSLLGWFMGQVMKETRGQANPDLARALVLERLE,-0.101
13,HMDSGFMRTTQSYTVARLAEIFRLSGEDYLAVLREYDGWYQDLTSTKDLIRKGSDVPVPEGV,-1.61
14,HMPELSITDADIIVAGGRGMGSAENFGLIRELAGLLGAAVGASRVVVDAEWVDQKHLIGQTGK,-0.112
15,HMPQFDRQAFGQRLRLLRDYREMTQQQVANFLNVDRSTYSYYENGKTEPSITVLMRMAELFSVTLDSLLNM,-2.83
16,HMGALTGQERRAEIMNILRQSTMPLSGAALGKQLGVSRQVVVQDIALLRQSGEEIYATNRGYVTG,-0.129
17,HMAQRFDLGDKLNPQSSEFEYLGTSSRTGVSTYRYKNVPTQLFFGRQIGDIVVGVRRGMITLTIYNL,-0.0451
18,HMPGGLSAEDVEKMVEKVLTVNGDVVEEIRSGRDPKGKKIKFLAGLVMRDARGQADAAAVSGILERRLKEG,0.133
19,HMVNFKLIGNKIAEARKKVNISQAQLAQRLFISSQAVGKWERGESMPDIITFNRLAEILGVDLNYFSE,0.0107
20,HMAQLPPTATARATSDVSGLTASAALRTLLEQGFVPQIHGSGKVSRQHPPAGTLLEPGSTIQLFLEPS,0.354
21,HMEFEIGQEDSKKSVKQFLYNTLRLSHGQVTALKRQERGILLNGERVFVTALLQEGDRLSLLLE,-0.342
22,HMFAGEWKQDASGWWYQNDDGSFTRNGWQNISGKQYYFNENGYMLHDTTTPDGKQVGSDGSLV,0.0661
23,HMTRDAQLAALERLMDDPSPVVRKAVLKGVQAAGTEGLLWLQQLSKNQTLGPYALALLTELR,-0.412
24,HMEVSKETFPAYVAVDSLPVYKSASTSSSKVTTIDFGREVTVVETRGGWAKIQYGSYKGFAEIEGMSKN,-0.368
25,HMKYTVKSPLPGVIMSVLVKVGDTVKASDTVISLEAMKMENAIHAGRDGKVTSIDVNVGDSVLEGHTLVTI,-0.386
26,HMDGASLLDIDGDGKVTPTIDGLLLMRWQFGTRGAALIGGISFPAGALRTTVNAIELHMRRLSETT,-0.844

row,Sequence,soluble fraction (log2)
1,HMNKELVVPDLTDMRVKDAEFEAHQVGMRTEIVDSVYVRRLKRGYVYKQNPVPGSKVKKGRRIALTINAV,0.202
2,HMSVPVDEVLAALTQKLTDLRTQAMAAKDFSAVDALKAALTEAGVEVRMSKTGVELIAGPRVDAKKLGTL,-0.03
3,HMDMNVQNYRGLSLDRAKKLISDLGLKYEVVGTGDSVVKQVPSSGSRMSKENGRIILYTENVEDA,0.00608
4,HMPPNHADLKSSGLKATLPRLKILEIFQNSQVRHLSAEDVYKLLLAENLDVGLATVYRVLTQFEQAGL,-0.475
5,HMDERLLRLYERELQFLREGADEFAQAYPKVAGHLGLNSQSMGDPFIERLLEGLGFLTARIQLQLESEF,-0.0252
6,HMTISPYTKDDFLKGTKPFEDVYAHKADPFVHDRALEQMTIWAKSVGVNGFKKLYKAYIDSLRIKNKEI,0.0524
7,HMTLDDSFYQKADEIIANHTKEERSLIPIIQDIQAEYRYLPPELLTYVAKEIGITDARAYSVASFYENFS,-0.446
8,HMKGIHDYITKDGLRVVKVHYSADPDKDVTTVEGKKWMAKALLGYPGGLEGAKWRREMEIDFNA,-0.0848
9,HMRGIPEEVADVAIQWVARLDSNEISDADRAAFFAWLDASPINRWAYNDISESWAKLSILNEMGH,-1.6
10,HMNTIIHPIRLAYVDSGSIKSMAEQAEIDVKILTSEANSQIFWAIGDEKQIDRLYNLISQVDIIQNK,-0.211
11,HMEPESTMIEISETLTNERLDRYLATKLPNVSRGGIQRLLREGNILVNGKKAKPTQHPVAGQKIEITWPNP,0.0857
12,HMSVAPISYSQFESYLEQGKVASVAVGQDTIAGRFTAPVDGKSQFVTTIVNPQILDRIDKSGVEITGV,0.176
13,HMYVADVVGMGIKDALYILENQGLRVVFTGKGVVKNQSIAVGEKIIKGEKIVLML,-1.7
14,HMHPQISVEGVLPLKEAVEFVEREIISHAYSRYRATREVARHLGIDPSTVLRKAAKYGITVEPGKN,-0.658
15,HMTDSSEILEAALKEAEDAAHEVLNGTFSVQLEPQKAYIRRLQHMLIDRMNLSSTSKGKEPYRSLLVYR,-1.11
16,HMSKPVFQTHSVRSADSATVFDVLQTLLAGTPDARIAIDPKTNAIVAWARPETQEVIAKSIMEMEG,0.0132
17,HMKHEFSEEWLDWIKSNIADGQNKNGLFKVLLNHGYAYDAVREVMQYEPTVPLDELVDPLRA,-0.139
18,HMTTMNSADLIKELEKAGWTLRGVKGSHHIYTHPARGGHLSVPHPKKDLGAGLARQLRKQAGL,0.125
19,HMGPRPLPAEFTHPSLRALLALGTTRGGVTSADVKTALEAASVPAGRRAAVLRALDDNGIEVHTEP,0.0376
20,HMRALPFSFANRHGVLIREISDGVAHAVYRIGSSPLGLAEARRFVGMPLMLTPVAREAFDSLLQQTYEQG,-1.6
21,HMETYTVPEVLGLTPEQAAQLPEVKDIFTLDVKEEGDFSDKPVGTIVRQSPTEGEHRKGDNLVIEVWLSV,-0.0593
22,HMQATDEEIENFTSSAITAYKLTKEEGYIISMRDMKPIMEIVKTEYPMANGKVVSKVMNNYING,-0.0668
23,HMGDEPGAGYKWREDVLLRVMSEHGIDESARDDFVRHAVKFDDDDNLYLKKAEIIAAAEAWESSS,0.17
24,HMSRYAFEGNVVRLNQKDFDSWKALFTNIDLVSELTRLDIEFTHDKPKNWFSTASAKLNYQNKNAY,-2.27
